Source: US20230398151A1
Like-named read-outs stand apart in the source and are kept apart here.

How the values were obtained:
TGFβ1 (R&D systems) [1] = biological target: TGFβ1 (R&D systems) (UniProt P01137); experiment: cell-based or functional assay
TGFβ1 (R&D systems) [2] = biological target: TGFβ1 (R&D systems) (UniProt P01137); experiment: cell-based or functional assay; remark: listed apart in the source

Sequence of TGFβ1 (R&D systems) (P01137 279-390 limits assumed): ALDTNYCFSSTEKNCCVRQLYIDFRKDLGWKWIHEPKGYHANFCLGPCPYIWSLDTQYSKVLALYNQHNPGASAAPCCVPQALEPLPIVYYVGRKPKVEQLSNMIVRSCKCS

- IC50 of TGFβ1 activity in HEK-Blue TGFβ cells (TGFβ1 (R&D systems) [1]): 0.559 nM
- IC50 of TGFβ1 activity in HEK-Blue TGFβ cells (TGFβ1 (R&D systems) [2]): 0.461 nM
Substance: TGFR-Fc (R&D Systems) (from UniProt P37173 24-159) (Fc fusion)
